This note sets out measurements from the PETadex activity labels.

Substrate in this data set: BHET
The note with it: 120 h.

B1: unnamed (protein)
chain: MNKTILEKIAVGTGALLFSVSAFSFTPSPTPDPTPDPEPCQGECDFTRGPNPTSSYMEANAGPYTVRTSSVSGSVSGFGGGTVHYPTNTSGEMGAIAIVPGFLAGESSISWWGPRLASHGFVVITIATNSVFDQPGSRSTQLGRALDYLVSQSNSSNSPISGMVDASRLGAMGWSMGGGGVLRLASGSRLVAAIPLAPWNTGSNDFDQIQTPTMIMACENDSTARVGTHASPFYNSIPGSTDKAYLEINGGSHSCANGGGSNGGLLGKYGVSWMKLFMDEDTRYSQFLCGPNHAANGAISEYRDTCNY
In the case of B1, the plate clearing entry is reported as “not clears the plate”.

B2: unnamed (protein)
chain: MSLDVWEWSTEAGGDIRQWDYLGADNQKWRINDLGNGYHSIISAYNGLSLDVYEWSTSNGGDIRQWDYTGAENQQWAFQPTGTSGGGSTGGGSTSCVSSSDITSSKLSATGASGPYSVRSKGVSNWSASGFGGGTIWYPTNASACGRMPGIAVVPGFLSYESSIRWWGARLASWGYVVITIDTNSIYDQPPSRGRQLSDALDHIIYDSTTRNMVDPNRLGAIGWSMGGGGSIWLANNRPEVKAIIPQAPWYLTTTSTSKPAFYIACESDTVAPTYSHVDDFYRYSTGPKMKIEINNGSHWCANSGNGNEGTLGKAGISWMKRYINGDTRFNQFLCGQENYGSRYDVSDYDYASCP
B2: the plate clearing entry is “not clears the plate”.

B3: unnamed (protein)
chain: MFGCYGCTDGSIVSAPISTVGYSDIKVTFTRSSSGLDLGEAGIAEWSANGSTYTVIESSRSVSGAATFNLPSGAAGQSGLRVRFRVDASLSSEYYTVDTITVEGTSSGGGGGGGVQIGPDPTTSTLESSSGGSFSVQYQSVSSLSTSGFDGGRLYYPTTSGQYGGIVLCPGYTASSSSLAWWGERLASWGFIVLIIDTNSAYDQPSSRATQLMAGVAWLKARNNDSGHALYGKLRESDIAVGGHSMGGGGTLIALRDNPSLKTGFAMTPWNSSTNFSGITQPTFILGCESDSVAPNSSHSIPFYNSISSSVKKVYAEVDGASHFCPNSSDAKMGKYGIAWYKRFLDGDTRFQPWLCPSATGGN
In the case of B3, the plate clearing result is “not clears the plate”.

B4: unnamed (protein)
chain: MQVRLSSLCRTALVALGLAWAAATAHAQTIDDASDISLAIGPAPTSSALNALNGPFAVSTSIVVLPVGFGGGTIYYPTQAGKYGVIALCPGFTATSTSLAWLARRLASWGFVVVNMNTVTVFDFPSSRATEMRVALRYATNWSSATVRARIDPNRQAVAGHSMGGGGALIAAVRNPELKAAYALMPWSPTYSPTSMKVPTMLVAADADTIAPAALMVRPYYKLIPATVPKAYAELRWGNHFSPILVNTPIGRYGAAWMKRFVDGDTRYQDFLCGAAHQYYANALVFASYLKNCPY
Regarding B4, the plate clearing entry is on record as “not clears the plate”.

B5: unnamed (protein)
chain: MKTSRHSTATTTLTRLARLALAAAAVLLSAAAQAQVVIFQENFNSGLGQFTASGTVSTSSGGARMQGCGGGTDGTITSSPISTVGFTNLKLSFDRTTTGLDSGEAGIAEYSVNGSTWTVIESTQSSSGRVTIALPAAAAGQAALRLRFRVNASLSSETYTVDNIPLAGTPGGNSAPGPGGTPYQRGPDPTAASLEASDGPFAVATLTVSSASGYGAGTIYYPTNTEGPFAAIAVVPGYTGTQSSIQWLGPRLASHGFVVITIDTNSLSDNPESRATQLMAALNQLVTLSNTSGHPIYGKVDSNRLGVMGHSMGGGGTLVAARDNPTLKAAIPLAPWYSSTNFSGVTVPTLVVACQSDTVAPVSSHALPMYNSIPSSTDKAYLEISGGDHLCVTTGNGNKAIQGKYVVAWMKRFLDNDTRYSPFLCGAPHQADLSGSAVSEYRDTCPY
With B5, the plate clearing entry is “clears the plate (z > 3 vs empty vector)”.

B6: unnamed (protein)
chain: MMAAAGSGGTSGGVSGSTGSAGAAGGATGAAGGGASSTGGFVREDAPTEMSTRAAKGKYTVKSYTSGFSGTGKDFLAGTLYYPTDADPPFASVAVVPGFTALQNSIMDWGPFLASHGIVTMTIDTLTTSDPPAQRADELMGALKSIAGENTRDGSPIKGQLDTTRQCVSGWSMGGGGTLIAASMHPELKCAVSFAAWQPTGGAMNKVPALMFEGTTDPLAAGMSQGFYDQTPDSTPKMIFEVAGASHDVANSPHNSMGIIGEYGLSWFKVYLEGDMRYKQFLLLP
On to B6, for which the plate clearing result is given as “not clears the plate”.

B7: unnamed (protein)
chain: MKTLFKAAVLCGAMLTSLGVLAQANPYQKGPDPTVSNLEAARGSFAVSSTSISGLSATGFGGGSLHYPTAAGSYGLIAVAPPYLAQSSSIAWLGPRLASHGFVVVMIDVNSTLDFPESRSRQQLAAIDYAIAQSARTTSPIYRKVDTTRRGVSGHSMGGGASILTARNAPANIKGAFPLTPWSSDKNFSSLQVPTGYLACESDTVAANADHSLNFYNRMPASTPKGYYELRGESHFCPQSTANNPVIGKYLVAWMKRFVDNDTRFSPFLSGALPNADLSSRRFSALRTSGL
For B7, the plate clearing result is given as “not clears the plate”.

B8: unnamed (protein)
chain: MKTTALRIKGLSIAAAIALSTLAPAAFSQTSPPTSASLNATSGPLSVSTASVFLPVGFGGGTIYYPTVAGKYGVIAISPGFTATESSIAWLGRRIATHGFVVITLNTNTTLDQPDSRATQLMAALRYVLNSSGSAVRARIDPTRLAVAGHSMGGGGSLIAARDNPTLKASYPMTPWNISSNFSTVRVPTMIIGADGDTIAPVASHARPFYASLPSSTLKAYGELNGATHFAPNTTNTPIGRYAVTWMKRFVDGDTRYSPFLCGAQHTSYATSRIFDRYNQNCPY
With B8, the plate clearing result is “not clears the plate”.

B9: unnamed (protein)
chain: MKHFHRFGATLFRGAAIAGPLALLGVAHAQTTAPTSASLNATAGPLSIASSTVSSLAANGFGGGTIYYPTASGRFGVVAISPGFTASQSTIEWLGRRMASHGFVVITIDTITTLDYPDSRATQLRAALDHVINRASTTVRNKVDPARRAVAGHSMGGGGSLIAAQADSTLKAAYPMTPWNITENFSRVRVPTMIIGADGDTIAPVTSHARPFYASIPNTTFKAYGELNNATHFAPNVTNTPIGRYGVAWMKRFVDGDTRYSTFLCGAEQNRYNTSLVFDQYRSNCPY
Turning to B9, the plate clearing entry is recorded as “not clears the plate”.

B10: unnamed (protein)
chain: MIIRYISRLALLAGAMTLSASLWAAPVPCRDCSTGYQRGDVPSTAELESRRGPYSVRTIRVSRLVNGFGGGTIYYSTESGGGQGIIAVVPGYLSLETTIQWWGPRLASWGFTVITMDTNTIYDQPTSRASQLSAALNYVINKGNDSRSPLYGLVDPNRTGVIGWSMGGGGALELSTRRNIQATIAQAPWHVGAGTFAQISTPTMILACQLDAVAPTAIHAKAFYNVIPRTTSKAYFEVRAGSHFCANTGYPNTDIIGRNGIAWMKRFIDNDTRYNQFLCGPNFESDFRISKYRDTCNY
For B10, the plate clearing result is on record as “not clears the plate”.

B11: unnamed (protein)
chain: MMNSVMDRFTIAASAVLFSASAWSFTPTPDPDPTPPPQPCQVDCDFTRGPNPTSSYLEANSGPYSVGTVRVSSSVNGFGGGTIHYPTNTTGKMGAIAVVPGFTAGESSIAWWGPRLASHGFVVITIATNSGFDQPASRATQLSNALDYVISQSNSSSSAISGMVDASRLGAMGWSMGGGGALRLASGARLSAAIPLAPWHSGSNPFDQIETPTMIIACESDSTAPVGSHASPFYNRIPASTDKAYLEINNGDHRCANGGGSNGGLLGKYGVSWMKRFIDRDTRYQQFLCGPNHEANTAISEYRDTCAY
B11: the plate clearing entry was “clears the plate (z > 3 vs empty vector)”.

B12: unnamed (protein)
chain: MNRSILERFVVGTSALLFSISAYSFTPSPTPEPEPEPCQGVCDFTRGPNPTSSYLEASRGPYSVNTVDVSRSVSGFGGGTIHYPTNTTGKMGAIAIVPGFLAAESSIAWWGPRLASHGFVVITIATNSTFDQPASRESQLSRALDYVINQSNSSGSPIAGKVDSTRVGAMGWSMGGGGTLKIASGSRLSAAIPLAPWHTGSNDFDQIDTPTMIIACENDTTAPVGRHASPFYNRISNATDKAYLEINNGGHSCANGGGTNAGLLGKYGVSWMKRFIDKDTRYSQFLCGPNHASNSAISEYRDTCSY
Turning to B12, the plate clearing entry is “not clears the plate”.

B13: unnamed (protein)
chain: MTEKDTSMKFFQATLSLTVGVLLTTALSGTALAESAYLRGPAPTVASVEAPAGPYQVTSQVMKDPVGYKAGTVFYPSDAQGQSFGLIVVAPGFIETQSWNAWWAQYLASHGFVVINIDTQSTLEFPAARAKEELAALNDVVRRSTQPDSPLFGLVDASRQGAMGHSMGGGATLEIAKANPYLKAIVPMAPFQTSGTDYSKLTVPTLIMACKGDVVATASSHSEPIYKSLSPSLDKAYLEMQGGAGHPCTTSVGTSDKVRTLAGKYGLAWFKRFLDEDTRYSQFLCGIPHGLDMFGKVISGYKGNCPY
As for B13, the plate clearing result is given as “not clears the plate”.

B14: unnamed (protein)
chain: MDWPRPRCVRRRTSNGQRRSTTCRGDIPMSTRVTHSRLTLIRCLALAAPLMCLGLAQAQTSPPTSESLNARSGPLSIASENVSRLAARGFGGGTIYYPRTSGRYGLIAISPGFTATESSVAWIGEKLASHGFVAIVINTNSTLDQPSSRARQLRAALDHAISSASSTVRNRIDPSRQAVAGHSMGGGGSLIAAEDDPSLKAAFPLTPWNTSSSFTRVRVPSMIFGADGDTIAPVAVHARPFYGSIPRTTSKAYAELQSATHFAPNVRNEAIGRYGVAWMKRFMDGDTRYSTFLCGSEHDRYNTSLRFDQFQSNCPY
For B14, the plate clearing result is “not clears the plate”.
